In the supplement of paper PMC9876800:

Tested on: peptide library, one residue held at a place counted from the S/T acceptor
Test: relative phosphorylation of the sub-library (ratio to the mean residue at this position); higher = residue favoured
Conditions: human
Outline: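 Human or orthologue kinase constructs, purified and recombinant, were incubated under kinase-specific conditions in 384-well plates with biotinylated degenerate peptide sub-libraries. Each sub-library fixed one residue at one position around a central Ser/Thr. Incubations lasted 90 min with peptides at 50 μM and 50 μM ATP spiked with γ-32P-ATP, after which spots on streptavidin membranes were phosphorimaged and quantified by densitometry. Relative sub-library phosphorylation is a ratio to the mean residue at that position.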

Sequence of AKT3, construct: aa106-end (Q9Y243 106-479, looked up): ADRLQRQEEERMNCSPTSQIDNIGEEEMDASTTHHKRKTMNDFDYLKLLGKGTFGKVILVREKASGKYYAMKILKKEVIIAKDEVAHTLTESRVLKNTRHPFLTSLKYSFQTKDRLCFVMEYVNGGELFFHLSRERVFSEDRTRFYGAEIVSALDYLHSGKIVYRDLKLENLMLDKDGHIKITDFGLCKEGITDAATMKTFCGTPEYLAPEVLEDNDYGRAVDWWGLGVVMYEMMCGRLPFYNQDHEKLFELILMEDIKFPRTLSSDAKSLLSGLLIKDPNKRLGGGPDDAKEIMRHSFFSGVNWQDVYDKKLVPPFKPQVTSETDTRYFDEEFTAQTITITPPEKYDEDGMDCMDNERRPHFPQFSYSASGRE
Sequence of MARK3, construct: Full length (P27448 whole entry, looked up): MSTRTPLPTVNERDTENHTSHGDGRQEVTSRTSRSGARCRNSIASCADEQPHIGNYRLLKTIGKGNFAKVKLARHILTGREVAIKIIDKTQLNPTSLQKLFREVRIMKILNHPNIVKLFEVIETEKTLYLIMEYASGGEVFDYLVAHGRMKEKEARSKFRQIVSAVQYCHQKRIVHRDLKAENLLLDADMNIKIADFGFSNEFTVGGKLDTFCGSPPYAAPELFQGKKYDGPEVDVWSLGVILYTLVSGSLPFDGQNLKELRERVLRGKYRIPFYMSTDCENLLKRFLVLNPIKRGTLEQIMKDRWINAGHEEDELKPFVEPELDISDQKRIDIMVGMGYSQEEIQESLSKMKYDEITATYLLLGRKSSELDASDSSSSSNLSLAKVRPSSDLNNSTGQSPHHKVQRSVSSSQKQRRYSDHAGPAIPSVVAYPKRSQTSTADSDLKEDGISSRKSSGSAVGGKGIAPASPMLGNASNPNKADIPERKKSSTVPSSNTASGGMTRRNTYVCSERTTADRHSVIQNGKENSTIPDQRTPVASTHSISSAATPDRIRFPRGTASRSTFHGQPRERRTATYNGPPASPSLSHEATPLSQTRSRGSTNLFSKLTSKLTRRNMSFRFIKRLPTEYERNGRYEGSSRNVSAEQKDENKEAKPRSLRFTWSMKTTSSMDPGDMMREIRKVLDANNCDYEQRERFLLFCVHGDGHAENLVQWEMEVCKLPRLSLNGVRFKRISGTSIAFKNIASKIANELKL

MARK3, construct: Full length (from UniProt P27448)
relative phosphorylation
Conditions	at +1	at +2	at +3	at +4	at -1	at -2	at -3	at -4	at -5
A fixed	0.634	0.761	0.599	0.335	1.09	2.23	0.806	1.19	1.16
D fixed	0.414	0.68	2.56	0.456	0.61	0.317	0.412	0.765	0.758
E fixed	0.82	0.902	0.95	0.319	0.605	0.263	0.458	0.703	0.72
F fixed	0.651	0.746	0.792	0.619	0.499	1.29	0.758	0.987	1.12
G fixed	0.542	0.47	0.559	0.385	2.52	1.37	0.687	1.32	1.03
H fixed	0.76	0.879	1.56	0.489	0.708	1.21	1.41	1.19	0.86
I fixed	1.14	0.863	0.486	2.82	0.441	0.444	0.497	0.565	0.817
K fixed	0.932	0.651	0.731	0.487	1.92	0.995	2.2	1.71	1.4
L fixed	1.25	1.16	0.782	5.82	0.654	0.392	0.6	0.642	1.49
M fixed	2.38	0.994	0.708	1.22	0.75	0.571	0.772	0.833	1.06
N fixed	1.26	0.998	3.05	0.526	1.06	0.583	0.682	0.916	0.627
P fixed	0.337	0.826	0.2	0.348	1.37	0.546	0.925	1.13	0.964
Q fixed	1.62	0.955	0.929	0.473	1.19	0.488	0.736	0.808	0.722
R fixed	1.45	0.708	0.706	0.349	1.66	0.969	3.51	1.52	1.45
V fixed	1.23	0.898	0.488	1.33	0.707	0.628	0.524	0.673	0.824
W fixed	0.75	3.62	0.927	0.557	0.585	3.05	1.19	1.19	1.08
Y fixed	0.831	0.888	0.969	0.461	0.633	1.65	0.83	0.856	0.915
pThr fixed	1.49	1.34	0.404	0.369	0.348	0.44	0.553	0.726	0.573
pTyr fixed	0.705	0.679	0.944	0.328	0.841	0.64	0.855	0.686	0.735

AKT3, construct: aa106-end (from UniProt Q9Y243)
relative phosphorylation
Conditions	at +1	at +2	at +3	at +4	at -1	at -2	at -3	at -4	at -5
A fixed	0.69	1.13	0.867	0.755	0.872	0.914	0.532	1.12	1.27
D fixed	0.38	0.56	0.496	0.586	0.669	0.149	0.13	0.491	0.464
E fixed	0.326	0.385	0.465	0.496	0.35	0.142	0.138	0.558	0.437
F fixed	2.25	0.596	0.824	0.604	0.783	0.32	0.168	0.611	0.672
G fixed	0.775	1.29	1.18	1.07	1.28	0.494	0.329	1.04	1.06
H fixed	0.962	2.06	1.45	1.11	1.18	1.17	0.56	0.991	1.18
I fixed	1.29	0.723	0.938	0.691	0.245	0.274	0.131	0.515	0.577
K fixed	0.962	1.31	1.9	1.8	1.65	3.02	1.5	2.19	2.15
L fixed	1.14	0.987	0.872	0.682	0.746	0.772	0.165	0.645	0.557
M fixed	1.58	0.774	0.718	0.716	1.12	0.391	0.179	0.833	0.648
N fixed	1.01	1.15	0.911	1.02	1.81	0.373	0.241	0.843	0.734
P fixed	0.407	0.746	0.842	2.68	1.14	0.283	0.406	1.06	1.2
Q fixed	0.895	0.716	0.981	0.98	1.03	0.429	0.502	1.02	0.797
R fixed	1.09	1.82	1.86	1.54	1.63	7.37	11.4	3.08	2.97
V fixed	1.23	1.02	0.711	0.659	0.402	0.324	0.147	0.639	0.692
W fixed	0.989	0.917	1.11	0.911	0.647	0.253	0.218	0.638	0.847
Y fixed	1.04	0.812	0.87	0.697	1.46	0.326	0.222	0.727	0.752
pThr fixed	0.571	0.463	0.682	0.639	0.279	0.294	0.255	0.612	0.545
pTyr fixed	0.643	0.656	0.74	0.517	0.787	0.263	0.223	0.537	0.618

EIF2AK2, construct: aa252-end (from UniProt P19525)
relative phosphorylation
Conditions	at +1	at +2	at +3	at +4	at -1	at -2	at -3	at -4	at -5
A fixed	0.837	0.775	0.867	0.96	0.739	1.04	0.961	1.13	1.13
D fixed	0.526	0.705	0.665	0.818	0.726	0.939	1.13	1.05	0.979
E fixed	0.509	0.688	0.599	0.844	0.64	0.912	1.18	0.954	0.945
F fixed	0.695	0.616	1.02	0.701	0.681	0.989	0.774	1.06	0.853
G fixed	1.12	1.55	1.46	1.23	0.724	0.999	1.51	1.13	1.21
H fixed	0.762	1.2	1.16	1.24	1.21	1.14	0.95	1.02	1.07
I fixed	1.01	0.648	0.9	1.04	1.16	0.793	0.89	0.805	0.995
K fixed	1.93	1.5	1.76	1.36	1.93	1.03	1.11	1.15	1.15
L fixed	1.01	0.541	0.896	0.73	0.915	1.32	0.779	0.815	0.767
M fixed	1.25	0.643	0.779	0.935	1.03	1.01	0.961	0.868	0.884
N fixed	1.04	1.78	0.876	0.972	1.18	1.2	0.99	0.937	1
P fixed	0.4	0.644	0.966	0.815	0.648	0.963	0.969	0.954	0.93
Q fixed	1.22	0.845	0.925	0.811	0.95	1.02	0.855	0.92	0.855
R fixed	2.57	2.68	1.7	1.75	1.97	1.09	1.5	1.21	1.41
V fixed	0.897	0.708	0.798	0.812	1.07	0.863	0.819	0.875	0.824
W fixed	0.637	0.715	0.863	1.06	0.64	0.87	0.804	1.24	0.947
Y fixed	0.585	0.757	0.768	0.927	0.771	0.818	0.821	0.878	1.05
pThr fixed	0.58	0.605	0.729	0.854	0.677	0.853	1.04	0.992	0.947
pTyr fixed	0.489	0.897	0.717	0.853	0.629	0.933	0.955	0.735	0.968

CAMK4, construct: Full length (from UniProt Q16566)
relative phosphorylation
Conditions	at +1	at +2	at +3	at +4	at -1	at -2	at -3	at -4	at -5
A fixed	0.518	0.587	0.723	0.805	0.66	0.761	0.61	0.815	0.598
D fixed	0.574	0.588	0.925	0.978	0.92	0.327	0.27	0.479	0.347
E fixed	0.727	0.483	0.846	0.999	0.722	0.386	0.404	0.705	0.364
F fixed	3.32	0.95	1.12	1	1.02	0.667	0.559	1.01	1.75
G fixed	0.745	0.525	0.905	0.847	0.692	0.573	0.566	0.861	0.631
H fixed	0.86	1.99	1.19	1.08	1.18	1.3	1.32	1.17	0.781
I fixed	0.95	1.24	0.874	0.837	0.711	0.484	0.449	0.865	1.22
K fixed	0.738	0.848	0.896	0.942	1.35	2.46	2.9	1.67	1.02
L fixed	0.822	1.25	1.04	1.06	1.05	0.547	0.432	1.01	1.85
M fixed	1.23	1.15	1	0.978	0.99	0.783	0.671	1.17	1.3
N fixed	0.977	1.08	1.21	1.14	1.36	1.06	0.723	0.962	0.651
P fixed	0.167	0.652	0.919	1.24	1.09	0.38	0.706	0.642	0.827
Q fixed	1.12	0.862	0.904	1.17	1.21	1.34	0.854	0.951	0.755
R fixed	0.929	1.24	0.977	1.04	1.27	3.93	4.59	1.73	1.48
V fixed	0.815	1.08	0.8	0.739	0.744	0.501	0.408	0.938	0.98
W fixed	1.25	1.16	1.39	1.12	0.93	0.744	0.841	0.949	1.1
Y fixed	1.26	1.33	1.27	1.03	1.1	0.756	0.695	1.09	1.35
pThr fixed	0.934	0.905	0.892	1.02	0.56	0.621	0.672	0.718	0.63
pTyr fixed	0.811	0.793	0.936	0.824	1.09	0.424	0.482	0.653	0.661
